In test [1] the target is T1, Human OATP1B1 (organic anion transporting polypeptide 1B1) (human, UniProt Q9Y6L6, N-glycosylation sites N134, N516).
T1 construct: wild-type human OATP1B1, gene codon-optimised for human cells (GenScript), in pcDNA5 with a cleavable C-terminal YFP-1D4 tag; The tag was removed with 3C protease after nanodisc reconstitution and before Fab18 was added for cryo-EM; also called SLCO1B1; not shown: YFP, C-terminal, cleaved; 1D4, C-terminal, cleaved
Briefly: cryo-EM structure; OATP1B1 in lipid nanodiscs (MSP1D1, brain polar lipids with cholesterol), premixed with 1:1.75 molar excess Fab18, SEC in HBS (25 mM HEPES pH 7.4, 150 mM NaCl), with 0.065 mM E1S. The note with it: both partners purified.

The target of test [2] is T2, Human OATP1B3 (organic anion transporting polypeptide 1B3) (human, UniProt Q9NPD5, N-glycosylation sites N134, N516).
T2 construct: wild-type human OATP1B3, gene codon-optimised for human cells (GenScript), in pcDNA5 with a cleavable C-terminal YFP-1D4 tag; also called SLCO1B3; not shown: YFP, C-terminal, cleaved; 1D4, C-terminal, cleaved
Briefly: cryo-EM structure; OATP1B3 in lipid nanodiscs (MSP1D1, brain polar lipids with cholesterol), premixed with Fab19 at a molar ratio of 1:1, SEC in HBS (25 mM HEPES pH 7.4, 150 mM NaCl), with 0.05 mM atazanavir. The note with it: both partners purified.

T1 sequence (Q9Y6L6 whole entry): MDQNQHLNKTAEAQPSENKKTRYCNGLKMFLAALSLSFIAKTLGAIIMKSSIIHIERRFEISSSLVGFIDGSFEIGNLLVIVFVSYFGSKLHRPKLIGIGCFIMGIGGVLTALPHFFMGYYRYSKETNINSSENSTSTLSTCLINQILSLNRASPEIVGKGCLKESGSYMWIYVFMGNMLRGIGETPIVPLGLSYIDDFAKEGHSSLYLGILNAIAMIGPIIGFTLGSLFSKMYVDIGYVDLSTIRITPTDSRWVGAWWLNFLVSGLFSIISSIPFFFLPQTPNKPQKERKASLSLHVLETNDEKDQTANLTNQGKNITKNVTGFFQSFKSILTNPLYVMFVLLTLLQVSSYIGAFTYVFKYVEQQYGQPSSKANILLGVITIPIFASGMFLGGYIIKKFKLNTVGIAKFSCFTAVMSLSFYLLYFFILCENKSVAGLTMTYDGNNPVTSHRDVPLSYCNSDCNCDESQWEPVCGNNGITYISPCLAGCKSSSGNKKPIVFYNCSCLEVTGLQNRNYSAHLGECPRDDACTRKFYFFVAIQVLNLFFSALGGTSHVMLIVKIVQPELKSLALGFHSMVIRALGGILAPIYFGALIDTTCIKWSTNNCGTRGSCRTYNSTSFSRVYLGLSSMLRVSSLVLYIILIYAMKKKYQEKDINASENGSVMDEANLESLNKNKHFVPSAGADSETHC
T2 sequence (Q9NPD5 whole entry): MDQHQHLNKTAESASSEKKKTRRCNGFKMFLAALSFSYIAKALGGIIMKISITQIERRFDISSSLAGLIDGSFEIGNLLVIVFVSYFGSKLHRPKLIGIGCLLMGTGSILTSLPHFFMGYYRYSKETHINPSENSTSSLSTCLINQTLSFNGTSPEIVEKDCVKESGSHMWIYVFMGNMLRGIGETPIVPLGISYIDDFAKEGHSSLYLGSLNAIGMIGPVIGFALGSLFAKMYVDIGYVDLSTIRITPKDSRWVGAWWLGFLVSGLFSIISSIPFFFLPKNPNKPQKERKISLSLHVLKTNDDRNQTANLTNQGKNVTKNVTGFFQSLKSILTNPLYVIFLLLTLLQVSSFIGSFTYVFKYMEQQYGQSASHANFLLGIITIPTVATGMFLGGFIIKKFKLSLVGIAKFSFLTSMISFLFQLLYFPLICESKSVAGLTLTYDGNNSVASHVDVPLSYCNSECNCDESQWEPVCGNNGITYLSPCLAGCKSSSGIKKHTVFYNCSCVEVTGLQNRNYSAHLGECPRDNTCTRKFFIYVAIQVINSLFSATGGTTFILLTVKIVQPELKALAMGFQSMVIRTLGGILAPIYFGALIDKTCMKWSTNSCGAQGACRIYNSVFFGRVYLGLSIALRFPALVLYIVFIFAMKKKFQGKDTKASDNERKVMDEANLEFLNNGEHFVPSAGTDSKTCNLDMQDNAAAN

B1: Fab18 (Fab, V domains shown)
VH: EVQLVESGGGLVQPGGSLRLSCAASGFNFSSSSIHWVRQAPGKGLEWVASISSSSGSTSYADSVKGRFTISADTSKNTAYLQMNSLRAEDTAVYYCARYGWGGPWYYWLRDSRSGIDYWGQGTLVTVSS
VL: DIQMTQSPSSLSASVGDRVTITCRASQSVSSAVAWYQQKPGKAPKLLIYSASSLYSGVPSRFSGSRSGTDFTLTISSLQPEDFATYYCQQSSSSLITFGQGTKVEIK
notes: heavy chain (HC) of Fab18 in PDB 8PHW; selected by phage display from synthetic Fab library E against OATP1B3; light chain (LC) of Fab18 in PDB 8PHW; also called synthetic Fab fragment Fab18; source: E. coli C43 (Pro+), pRH2.2, purified (Protein L, Resource S)
As for B1, in test [1], the binding result is given as “binds”.

B2: Fab19 (Fab, V domains shown)
VH: EVQLVESGGGLVQPGGSLRLSCAASGFNFSSSSIHWVRQAPGKGLEWVASISSSSGSTSYADSVKGRFTISADTSKNTAYLQMNSLRAEDTAVYYCARYYIKRWWLMSWEDYSMGLDYWGQGTLVTVSS
VL: B1 VL
notes: heavy chain (HC) of Fab19 in PDB 8PG0; selected by phage display from synthetic Fab library E against OATP1B3; light chain (LC) of Fab19 in PDB 8PG0; also called synthetic Fab fragment Fab19; source: E. coli C43 (Pro+), pRH2.2, purified (Protein L, Resource S)
With B2, in test [2], the binding result was “binds”.

These data come from article PMC10507018, “Structure of human drug transporters OATP1B1 and OATP1B3” (Nature Communications, 2023).
